Assay results from patent publication US7226992B1, “Mutant Bcl-2 proteins and uses thereof” (Abbott Laboratories, priority 2000, dated 2007).
Residues, ends and D or L forms follow the SMILES beside them. Primed or numbered codes have the meaning given here. No end group written: not given here. *: point of attachment. 5FAM = O=C1OC2(c3ccc(O)cc3Oc3cc(O)ccc32)c2ccc(C(=O)*)cc21; FITC′ = fluorescein isothiocyanate

Biological target: T1, Bcl-2/iso1 (Homo sapiens, UniProt P10415, DEL35-91/INS34DVEENRTEAPEGTESE/R110G/T96A)
T1 construct: His tag (pET28b, thrombin-cleavable) (N, cleaved yes); made in house; host or cells: E. coli BL21(DE3)
Test: Fluorescence polarization titration of fluoresceinated probe peptides with Bcl-2/iso1
Format: binding
Conditions: not given
Procedure: (3) (FITC)-AAQRYGRELRRMSDEFVR(SEQ ID NO:19). The dissociation constants of these fluoresceinated peptides from Bcl-2/iso1 are ˜20 nM, ˜50 nM, and ˜100 nM, respectively.
All titrations were automated by means of an Abbott clinical diagnostics instrument (IMx, FPIA mode) modified with a special protocol for performing titrations. A complete two-fold dilution series, comprised of twenty separate 2 mL samples, was obtained by delivering appropriate individual aliquots to the first seven tubes, aliquots from an intermediate diluted stock for the next seven, and one more intermediate dilution for the final six. […] The concentrations of the DMSO stock solutions of the peptide were 1–4 mM as determined by Trp absorbance (O.D. 280 nm), Tyr absorbance (O.D. 293), or amino acid analysis. […] Twenty 1.8 uL samples were prepared without fluoresceinatedpeptide and read as blanks. To each tube, 0.2 uL of a Bcl-2, fluoresceinatedpeptide mixture was added; the tubes were incubated for 5 min at 35° C., and then read for total intensity and polarization. […]
Steady state polarization data can be analyzed to extract the fractions of bound and free fluorescent ligand owing to the linear additivity of their anisotropy values, weighted by their respective fractional intensities (Lakowicz, JR. Principles of Fluorescence Spectroscopy. New York, N.Y.: Plenum Press (1983)). […]

T1 sequence (P10415 with tags, fused parts or gaps with the stated changes): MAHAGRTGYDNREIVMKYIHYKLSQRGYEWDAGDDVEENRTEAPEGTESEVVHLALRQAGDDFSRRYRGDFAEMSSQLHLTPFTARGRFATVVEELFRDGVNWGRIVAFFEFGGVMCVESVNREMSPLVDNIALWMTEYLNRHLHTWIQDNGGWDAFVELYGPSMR

Row | Molecule | Kd [nM]
1 | CSCC[C@H](NC(=O)[C@H](CCCNC(=N)N)NC(=O)[C@H](CCCNC(=N)N)NC(=O)[C@H](CC(C)C)NC(=O)[C@H](CCC(=O)O)NC(=O)[C@H](CCCNC(=N)N)NC(=O)CNC(=O)[C@H](Cc1ccc(O)cc1)NC(=O)[C@H](CCCNC(=N)N)NC(=O)[C@H](CCC(N)=O)NC(=O)[C@H](C)NC(=O)[C@H](C)NC(=O)[C@H](C)NC(=O)[C@H](C)NC(=O)[C@H](C)NC(=O)c1ccc2c(c1)C(=O)OC21c2ccc(O)cc2Oc2cc(O)ccc21)C(=O)N[C@@H](CO)C(=O)N[C@@H](CC(=O)O)C(=O)N[C@@H](CCC(=O)O)C(=O)N[C@@H](Cc1ccccc1)C(=O)N[C@H](C(=O)N[C@@H](CC(=O)O)C(=O)N[C@@H](CO)C(=O)N[C@@H](CCCCN)C(=O)N[C@@H](CCCCN)C(=O)O)C(C)C (5FAM-AAAAAQRYGRELRRMSDEFVDSKK-OH; C-terminus assumed) | ~50
2 | CSCC[C@H](NC(=O)[C@H](CCCNC(=N)N)NC(=O)[C@H](CCCNC(=N)N)NC(=O)[C@H](CC(C)C)NC(=O)[C@H](CCC(=O)O)NC(=O)[C@H](CCCNC(=N)N)NC(=O)CNC(=O)[C@H](Cc1ccc(O)cc1)NC(=O)[C@H](CCCNC(=N)N)NC(=O)[C@H](CCC(N)=O)NC(=O)[C@H](C)NC(=O)[C@H](C)NC(=O)[C@H](C)NC(=O)[C@H](C)NC(=O)[C@H](C)NC(=O)c1ccc2c(c1)C(=O)OC21c2ccc(O)cc2Oc2cc(O)ccc21)C(=O)N[C@@H](CO)C(=O)N[C@@H](CC(=O)O)C(=O)N[C@@H](CCC(=O)O)C(=O)N[C@@H](Cc1ccccc1)C(=O)N[C@H](C(=O)N[C@@H](CC(=O)O)C(=O)N[C@@H](CO)C(=O)N[C@@H](Cc1ccccc1)C(=O)N[C@@H](CCCCN)C(=O)N[C@@H](CCCCN)C(=O)O)C(C)C (5FAM-AAAAAQRYGRELRRMSDEFVDSFKK-OH) | ~20

Biological target: mutant Bcl-2/iso1 protein (Bcl-2/iso1 residues 1-34, Bcl-xL loop residues 29-44, Bcl-2/iso1 residues 92-207; plasmid C) (human)
Test: competitive fluorescence polarization, displacement of a fluorescein-labeled peptide probe from Bcl-2 (340 nM)
Conditions: not given

Row | Kd [nM] | Molecule
3 | 159 | NLWGAQRYGRELRRMSDEFVDSFKK [peptide … (SEQ ID NO:24)]
4 | 711 | QRYGRELRRMSDEFVDSFKK [peptide … (SEQ ID NO:35)]
5 | 2330 | NLWAAQRYGRELRRMSDEFVD [peptide … (SEQ ID NO:36)]
6 | 63 | GGGAAQRYGRELRRMSDEFVDSFKK [peptide … (SEQ ID NO:30)]
7 | 762 | NLWAAQRYGRELRRMSAEFVDSFKK [peptide … (SEQ ID NO:34)]
8 | 75 | NAWAAQRYGRELRRMSDEFVDSFKK [peptide … (SEQ ID NO:22)]
9 | 74 | AAAAAQRYGRELRRMSDEFVDSFKK [peptide … (SEQ ID NO:17), not labeled]
10 | 22 | NLWAAQRYGRELRRMSDEFVDSFKA [peptide … (SEQ ID NO:29)]
11 | 54 | NLPAAQRYGRELRRMSDEFVDSFKK [peptide … (SEQ ID NO:31)]
12 | 7480 | NLWAAQRYGREARRMSDEFVDSFKK [peptide … (SEQ ID NO:33)]
13 | 186 | NLWAAQRYARELRRMSDEFVAAFKK [peptide … (SEQ ID NO:32)]
14 | 26 | NLWAAQRYGRELRRMSDEFVDAFKK [peptide … (SEQ ID NO:26)]
15 | 14 | NLWAAQRYGRELRRMSDEFVDSFKK [peptide … (SEQ ID NO:20)]
16 | 105 | NLWAGQRYGRELRRMSDEFVDSFKK [peptide … (SEQ ID NO:25)]
17 | 397 | NLWAAQRYGRELRRMSDEFVDSAKK [peptide … (SEQ ID NO:27)]
18 | 211 | ALWAAQRYGRELRRMSDEFVDSFKK [peptide … (SEQ ID NO:21)]
19 | 39 | NLAAAQRYGRELRRMSDEFVDSFKK [peptide … (SEQ ID NO:23)]
20 | 123 | NLWAAQRYGRELRRMSDEFVDSFAK [peptide … (SEQ ID NO:28)]

Biological target: mutant Bcl-2/iso2 protein (plasmid C construct with Ala96 to Thr96 and Gly110 to Arg110; plasmid D) (human)
Test: as above
Conditions: not given

Row | Kd [nM] | Molecule
21 | 8 | NLWAAQRYGRELRRMSDEFVDSFKK [peptide … (SEQ ID NO:20)]
22 | 1600 | GQVGRQLAIIGDDINR [peptide … (SEQ ID NO:37)]

Biological target: T1, Bcl-2/iso1
Test: Competitive fluorescence polarization assay, peptide binding to Bcl-2/iso1
Conditions: not given
Procedure: A competitive fluorescence polarization assay was used to measure the affinity of various peptides for Bcl-2/iso1 (see Table 2) or Bcl-2/iso2 (see Table 3). Competitive assays were performed using one of the following three fluorescein-labeled peptides as a probe:
All titrations were automated by means of an Abbott clinical diagnostics instrument (IMx, FPIA mode) modified with a special protocol for performing titrations. A complete two-fold dilution series, comprised of twenty separate 2 mL samples, was obtained by delivering appropriate individual aliquots to the first seven tubes, aliquots from an intermediate diluted stock for the next seven, and one more intermediate dilution for the final six. […] The final DMSO concentration for all samples never exceeded 1%. Twenty 1.8 uL samples were prepared without fluoresceinatedpeptide and read as blanks. To each tube, 0.2 uL of a Bcl-2, fluoresceinatedpeptide mixture was added; the tubes were incubated for 5 min at 35° C., and then read for total intensity and polarization.

Row | Molecule | Kd [nM]
23 | NLWAAQRYARELRRMSDEFVAAFKK [SEQ ID NO:32] | 186
24 | NLWGAQRYGRELRRMSDEFVDSFKK [SEQ ID NO:24] | 159
25 | NLPAAQRYGRELRRMSDEFVDSFKK [SEQ ID NO:31] | 54
26 | NLWAAQRYGRELRRMSDEFVDSFAK [SEQ ID NO:28] | 123
27 | NLWAAQRYGRELRRMSDEFVDAFKK [SEQ ID NO:26] | 26
28 | AAAAAQRYGRELRRMSDEFVDSFKK [SEQ ID NO:17] | 74
29 | NLWAAQRYGRELRRMSAEFVDSFKK [SEQ ID NO:34] | 762
30 | NLWAGQRYGRELRRMSDEFVDSFKK [SEQ ID NO:25] | 105
31 | NAWAAQRYGRELRRMSDEFVDSFKK [SEQ ID NO:22] | 75
32 | NLWAAQRYGREARRMSDEFVDSFKK [SEQ ID NO:33] | 7480
33 | GGGAAQRYGRELRRMSDEFVDSFKK [SEQ ID NO:30] | 63
34 | ALWAAQRYGRELRRMSDEFVDSFKK [SEQ ID NO:21] | 211
35 | NLWAAQRYGRELRRMSDEFVDSFKA [SEQ ID NO:29] | 22
36 | QRYGRELRRMSDEFVDSFKK [SEQ ID NO:35] | 711
37 | NLWAAQRYGRELRRMSDEFVD [SEQ ID NO:36] | 2330
38 | NLAAAQRYGRELRRMSDEFVDSFKK [SEQ ID NO:23] | 39
39 | NLWAAQRYGRELRRMSDEFVDSAKK [SEQ ID NO:27] | 397

Biological target: mutant Bcl-2/iso1 protein (Bcl-2/iso1 residues 1-34, Bcl-xL loop residues 29-44, Bcl-2/iso1 residues 92-207; plasmid C) (human)
Test: fluorescence polarization, direct titration of the fluoresceinated peptide with Bcl-2
Conditions: not given

Row | Kd [nM] | Molecule
40 | 20 | 5FAM-AAAAAQRYGRELRRMSDEFVDSFKK [(5-FAM)-… (SEQ ID NO:17), fluorescein-labeled peptide probe (1)]
41 | 50 | 5FAM-AAAAAQRYGRELRRMSDEFVDSKK [(5-FAM)-… (SEQ ID NO:18), fluorescein-labeled peptide probe (2)]
42 | 100 | {FITC′}-AAQRYGRELRRMSDEFVR [(FITC)-… (SEQ ID NO:19), fluorescein-labeled peptide probe (3)]

Tested on: not listed separately
Test: Isoelectric point of Bcl-2 / Bcl-xL proteins
Format: physicochemical, human
Conditions: pH at which the protein carries no net charge
From the text: As used herein, the term “isoelectric point” (or pI) refers to the pH at which the protein carries no net charge. The isoelectric points of Bcl-2/iso1, Bcl-2/iso2, and Bcl-2/iso3 are about 7.0, 7.2 and 7.2, respectively. The mutant proteins of the present invention have an isoelectric point lower than that of wild-type Bcl-2 and preferably, in the range of 4.5 to about 6.0. More preferably, the isoelectric point of a mutant protein of the invention is from 4.5 to about 5.5. A more preferred isoelectric point is from about 5.0 to about 5.5. A most preferred isoelectric point is 5.0. Means for determining the isoelectric point of a protein are well known to those of ordinary skill in the art.

Row | Molecule | isoelectric point
43 | Bcl-2/iso2: wild-type human Bcl-2 protein isoform 2 (SEQ ID NO:4) | ~7.2
